The supplement of paper PMC9170038

Test system: MS2 coat protein
Assay: apparent KD of MS2 coat protein; designed switch direction (-1 OFF switch, 1 ON switch): -1; higher = weaker reporter binding
In short: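 The reported apparent KD is a per-design median over clusters, from curve fits of normalised cluster fluorescence. Protein titrations used SNAP-549-labelled MS2 coat protein, doubled from 0.7 or 1.5 nM to 3 µM, in Tris-HCl pH 7.5 buffer with KCl, MgCl2, BSA, DTT, tRNA and Tween-20, with no input, 200 uM small-molecule ligand, or an oligonucleotide input. The RNA switches were transcribed on Illumina chips by stalled E. coli RNA polymerase.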

[1] = Eterna round: R95, input ligand: FMN 200 uM
[2] = Eterna round: R95, input ligand: microRNA oligo, concentration not stated
[3] = Eterna round: R95, input ligand: none
[4] = input ligand: microRNA oligo, concentration not stated

| Sequence | apparent KD of MS2 coat protein [1] [µM] | apparent KD of MS2 coat protein [2] [µM] | apparent KD of MS2 coat protein [3] [µM] | apparent KD of MS2 coat protein (input ligand: FMN 200 uM) [µM] | apparent KD of MS2 coat protein (input ligand: none) [µM] | apparent KD of MS2 coat protein [4] [µM] |
| --- | --- | --- | --- | --- | --- | --- |
| AGUACUAACACGAGAGUGUUAGUACAAUAAGCUUGUGAAACAUGAGGAUCACCCAUGUCCUCAUAAGCUCGUCUUAU [salish99_TOv2_r3_029] (puzzle: Sensor v3, turn-off variant 2) | 0.0181 | 0.949 | 0.0172 | – | – | – |
| CCUUGACAUGAGGAUCACCCAUGUGAGGAUAUCCUGCGAGGAUCAAAAGAUCCUCGUGGGAGAAGGCAUAUGAA [Omei Ex1 A7] (Eterna round: R97, puzzle: Exclusion 1) | – | – | – | 0.0326 | 0.0167 | – |
| AGUUGGCGAGGAUAUACAUGAGGAUCACCCAUGUGAGAGAUACUAGUGAGGUCGAUUAGUAGAAGGCGCUGACG [Mat - Exclusion 3 - Mod of JL D76] (puzzle: Exclusion 3) | 1.17 | 0.0253 | 0.0493 | – | – | – |
| GCCGCCGCCUUGGCGGCGGACAUGAGGAUCACCCAUGUCAAGCUUUUGCUCGUCUUAUUUGGCCGGCUUGCCGGCCA [Olib_1] (Eterna round: R97, puzzle: Sensor, turn-off variant 1) | – | – | – | 0.0245 | 0.0261 | – |
| CUUCGACAUGAGGAUCACCCAUGUCAGGAUAUUGUGUAUCUGGUUUUUUACAGAUAGACAAGAAGGGAUGUGUU [LRO-Excl1-01] (puzzle: Exclusion 1) | – | 0.0252 | – | – | – | – |
| GUACUGACAGGAUAUACAUGAGGAUCACCCAUGUGCCCUUAAAGAUGCAAAGCAUCAAGUAGAAGGGUCUGUAC [Omei Ex3 Model Bachelor's Dilema v21] (Eterna round: R97, puzzle: Exclusion 3) | – | – | – | 0.053 | 0.0405 | – |
| UUUAGUUCAGGAUAUGUAGAUUUUAACAUGAGGAUCACCCAUGUAGAUCCUGAAUUAACUACAGAAGGGAACAUUC [Exclusion 5: 2:c] (Eterna round: R96, puzzle: Exclusion 5) | – | – | – | 0.0508 | 0.0207 | 0.0156 |
| GAAAAGGUAGGAUAUACGAAAAAAAAGGGUAGAAUAAAAACACAUGAGGAUCACCCAUGUAGAAGGACCAAAAG [salish99_ex2_r3_077] (puzzle: Exclusion 2) | 0.0804 | 0.0318 | 0.0289 | – | – | – |
| CUGUUUUCCGCAGGAUAUGCUCCUCCAUUAUUUGCAGAAGGGCGUUGAACAUGAGGAUCACCCAUGUAUGUAAUUGAUUAUUGC [JR_ExcNG1_Sub070] (Eterna round: R96, puzzle: Exclusion NG 1) | – | – | – | 0.0277 | 0.0338 | 0.0275 |
| GGAUUACAUGAGGAUCACCCAUGUGAGGAUAUCCCGACAGGUUGCAGAGAACCUCGUAGGAGAAGGCACAGGCG [EX1 B.12] (Eterna round: R97, puzzle: Exclusion 1) | – | – | – | 0.234 | 0.102 | – |
| ACAUGAGGAUCACCCAUGUCCGUCUGGUCUGUCUCGGCUGUCGAGGAUAUAGCCCGGUAUCCGCGCUAGAAGGUGGGAGUCGGC [Aenatbe mod 98] (Eterna round: R96, puzzle: Exclusion NG 3) | – | – | – | 0.0314 | 0.0373 | 0.0289 |
| UACUGGACAGGAUAUGUUCUUGAGCACUUGAGGAUCACCCAAGUCAUCAAGAACUCAGGCACAGAAGGGUUUAUGG [salish99_ex5_r4_006] (Eterna round: R97, puzzle: Exclusion 5) | – | – | – | 0.0255 | 0.0148 | – |
| UACAUGAGGAUCACCCAUGUCUUUUCGUGUAUGGUACCCAUCUAGGAUAUCGUGUUAUUUAACCACGAGAAGGAGAGUAUCAAU [MOD5 Solution 21 by JMF] (Eterna round: R96, puzzle: Exclusion NG 3) | – | – | – | 0.0656 | 0.0665 | 0.0559 |
| CUGUACAUAGGAUAUAGUUGCUUUUACAUGAGGAUCACCCAUGUCACUCCUCUCUCUCUUCUAGAAGGAUGUUUCU [JR_E5_Sub009] (puzzle: Exclusion 5) | – | 0.0684 | – | – | – | – |
| ACCAGCAUACGGAGAUCCAACAUGAGGAUCACCCAUGUCUGGAAAGCUUUUUGCUUGUCUUAUCCUCCUCUGUGUGU [Design #5] (Eterna round: R97, puzzle: Sensor, turn-off variant 1) | – | – | – | 0.0302 | 0.0322 | – |
| AAAAGGCAGCAGGAUAUAGUCACCAUCGGGUUGCUAGAAGGGCUAACAUGAGGAUCACCCAUGUGGGUGCAAAA [Soinsoan] (puzzle: Exclusion 6) | 0.578 | 0.452 | 0.667 | – | – | – |
| AGCGAAUAGACAGGAUAUGAGAAUAGAUAGAGCUCAGAAGGGUCACAUGAGGAUCACCCAUGUGAAGUCUUGAGGCUGCGUGGU [Prohibition 18 - Jieux - Exclusion NG 1] (Eterna round: R96, puzzle: Exclusion NG 1) | – | – | – | 0.0131 | 0.0161 | 0.0134 |
| GGUCAGAUGGUAGGAUAUCCAUAUCGAGUGACCUUUUCAUAACAUGAGGAUCACCCAUGUCGGUGGGAGAAGGGCCGUACGGCG [salish99_ExNG02_R04_017] (Eterna round: R96, puzzle: Exclusion NG 2) | – | – | – | 0.12 | 0.112 | 0.079 |
| UUAUUUUUUGAGGAUAUGCGACGUUUUUUCGUCGUAGAAGGCGAUACAUGAGGAUCACCCAUGUUUAUGGGCAU [LRO-Ex6-13] (puzzle: Exclusion 6) | – | 0.0738 | – | – | – | – |
| AGAUGUAGAUACCGAUCCUACAUGAGGAUCACCCAUGUAGCUAGACGUGCACGCGUAGCUCGUCAGACUACCAGUAG [salish99_TOv1_r3_086] (puzzle: Sensor v3, turn-off variant 1) | 0.372 | 0.336 | 0.363 | – | – | – |
| UUUGUUUAUGUGAGGAUAUACUGUUUGUAUUGAUUGUAGAAGGUACAUGAGGAUCACCCAUGUUUUGUAUUUAU [JR_BME4_Sub035] (puzzle: Brourd's mod of Exclusion 4) | – | 0.0177 | – | – | – | – |
| AGUAUGCGAGGAUAUACAUGAGGAUCACCCAUGUGAGAGAUAAAAGUGAGAAAGACAAGUAGAAGGCGCGUACA [JL Lego Mod 23] (Eterna round: R96, puzzle: Exclusion 3) | – | – | – | 0.413 | 0.0811 | 0.0419 |
| UUAUAACAUGUAGGAUAUGCGUGGCGAAGCUAUGCAGAAGGACAUGAGGAUCACCCAUGUUCCUGCGUCCGCGUACGGAUGCAA [JL Eng1 1.21 mod 1] (Eterna round: R96, puzzle: Exclusion NG 1) | – | – | – | 0.0341 | 0.0143 | 0.0141 |
| GGUCAGACGGUAGGAUAUCUAUAUCGAGUGACCCUUUCAUAACAUGAGGAUCACCCAUGUCGGUGGGAGAAGGGCCGUACGGCG [salish99_ExNG02_R04_007] (Eterna round: R96, puzzle: Exclusion NG 2) | – | – | – | 0.0625 | 0.0422 | 0.0316 |
| UAGAUGGGAGGAUAUGCGUAGAUGCAGGUUCGUGUGGUGCUACAUGAGGAUCACCCAUGUAGAAGGCCCGUCUU [Mod 7 R3 JL-ex2-2.29 - Jieux - Exclusion 2] (Eterna round: R97, puzzle: Exclusion 2) | – | – | – | 0.0207 | 0.0176 | – |
| AGAUGGCGAGGAUAUACAUGAGGAUCACCCAUGUGAGAAGAAGAAGUGAGGAAGAAAAGUAGAAGGCGCUGUCA [Mat - Exclusion 3 - Mod of Salish D20] (puzzle: Exclusion 3) | 0.145 | 0.0503 | 0.0449 | – | – | – |
| UGAUCUAGCGGAGGAUAUACAUGAGGAUCACCCAUGUAGUAGUGAGUACCGUAGUGCUCACUUGUGUAGAAGGCCGCUAGAUCU [JL ENG2 3.60] (Eterna round: R96, puzzle: Exclusion NG 2) | – | – | – | 0.0179 | 0.0135 | 0.00986 |
| UUAAAUCAUGUAGGAUAUGCGUAGCGAAGCUAUGCAGAAGGACAUGAGGAUCACCCAUGUGCUUGCGUCCGCGUACGGAUGCUA [Mat - Exclusion NG 1 - Mod of JL - D66] (Eterna round: R96, puzzle: Exclusion NG 1) | – | – | – | 0.202 | 0.134 | 0.107 |
| ACAUAGGUAGGAUAUCUAAGUUGAUACAUGAGGAUCACCCAUGUGUUACUCAAGAUCUACAGAGAAGGGCCUGAGG [Eternabot (L2) Solution 93] (Eterna round: R97, puzzle: Exclusion 5) | – | – | – | 0.0197 | 0.0153 | – |
